In general, Kd refers to the concentration at which binding is half-saturated. Read a low Kd as tighter binding.

Experiment [1] deals with T1, HOIP UBA domain (human, UniProt Q96EP0 480-636).
T1 sequence: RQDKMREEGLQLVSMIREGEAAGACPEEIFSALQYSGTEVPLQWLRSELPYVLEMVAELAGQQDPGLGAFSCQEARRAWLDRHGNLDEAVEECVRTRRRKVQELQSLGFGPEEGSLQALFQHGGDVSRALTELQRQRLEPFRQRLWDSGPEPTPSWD
Put plainly: ITC.

In experiment [2] the target is T2, IpaH1.4 LRR domain (S. flexneri, UniProt A0A0H2USG1 38-283).
T2 sequence: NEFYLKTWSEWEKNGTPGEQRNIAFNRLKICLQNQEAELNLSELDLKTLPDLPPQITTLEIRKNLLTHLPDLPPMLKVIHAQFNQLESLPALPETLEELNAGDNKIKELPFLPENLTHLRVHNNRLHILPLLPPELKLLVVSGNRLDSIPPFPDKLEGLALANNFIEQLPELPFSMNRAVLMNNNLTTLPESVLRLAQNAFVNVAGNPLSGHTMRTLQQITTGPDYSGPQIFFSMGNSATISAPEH
Put plainly: ITC. For orientation: ITC needs no label: the signal is the heat of the interaction.

B1: HOIL-1L UBL domain (domain or fragment)
chain: QDIRLWVSVEDAQMHTVTIWLTVRPDMTVASLKDMVFLDYGFPPVLQQWVIGQRLARDQETLHSHGVRQNGDSAYLYLLSARN
As for B1, the Kd in experiment [1] is 3.9 ± 0.4 µM; in experiment [2], 10.7 µM.

The values above are taken from article PMC8944867 (Proceedings of the National Academy of Sciences of the …, 2022).
